Experimental data taken from publication PMC5095700.

Substrate: N[C@@H]1[C@@H](O)[C@H](O)[C@@H](CO)O[C@H]1O
Test: purified protein
Type: biochemical, Clostridium acetobutylicum
Settings: CoA C-terminal domain active site, Trp […], Glu […], Asp […]

B1: Glucosamine/glucosaminide N-acetyltransferase (GlmA) (Clostridium acetobutylicum ATCC 824) (protein)
chain: MEIKETYDFSSIVDLWNKNIGTVYPMNLELFKQNYINDRQRKKIMGAFNGEILIGFVIYKQWTYKSGSLKPNHKIGYINSIIVDINFRHQGIGTKLLDAAEEELINSGVKILRCGSDTYHFFPGIPLECLPSEEFFLVRGYKMQDYFYDLIGDVSKVDFKKPSIKDGFKVNVMKPEDRKGLFEFLEKSFSGRWLEEFIEFFQVGMKERDIVLIKYKTSVIGFSHIYDNKSSFIGPPIYWKALLGHNYGGLGPIGIDKTYRKQGLGRLLLYESLQILKKREVKKMVIDWTEKDIINFYGRFNFMPWKAYRKATKEVKDGKG
For B1, the Km was 210 ± 20 µM.
